Laboratory results published in paper doi:10.1101/2023.04.26.538363 (bioRxiv, 2023).
Positions count from the first letter of the chain named. Numbers in names are those of the source.

T1: Escherichia coli inclusion body-associated protein B (E. coli, UniProt P0C058 1-142)
T1 sequence: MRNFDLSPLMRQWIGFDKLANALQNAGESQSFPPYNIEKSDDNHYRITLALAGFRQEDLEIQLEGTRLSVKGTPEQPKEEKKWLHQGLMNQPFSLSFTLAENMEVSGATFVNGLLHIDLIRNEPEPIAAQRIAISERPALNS

B1: Escherichia coli inclusion body-associated protein A, wild type (natural protein)
chain: MRNFDLSPLYRSAIGFDRLFNHLENNQSQSNGGYPPYNVELVDENHYRIAIAVAGFAESELEITAQDNLLVVKGAHADEQKERTYLYQGIAERNFERKFQLAENIHVRGANLVNGLLYIDLERVIPEAKKPRRIEIN
B2: Escherichia coli IbpA R93A mutant (natural protein)
chain: B1 chain with R93A

Key:
[1] = molecular target: T1, Escherichia coli inclusion …; assay: sucrose density gradient centrifugation
[2] = molecular target: the molecule itself; assay: sucrose density gradient centrifugation

Binder	binding result [1]	binding result [2]
B1	binds	binds
B2	binds	binds
